Measurements as given in the supplement of paper PMC10567573.

B1: NET1 (parent)
chain: RVRPLARVTSLANLISPVRNGAVR
B2: DLC1 (parent)
chain: AIQGISEKEKAEIEAKEACDWLRA

Variants of: B1
Experiment: protein stability index of a GFP-peptide fusion (GPS, HEK-293T) (PSI 1-6); higher = more stable
Settings: c terminus: a fixed tail appended
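Note: lentivirally expressed fusions sorted by FACS into six bins by GFP to DsRed ratio, PSI derived from sequencing read proportions per bin multiplied by bin number.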

Variant	protein stability index
V2E	3.69
V2Q	3.59
V2W	2.67
V2S	3.57
V2Y	2.62
V2K	3.65
V2N	2.79
V2C	2.64
V2F	1.97
V2I	2.25
V2L	2.29
V2M	3.04
V2R	2.92
V2T	3.14
V2P	3.11
V2D	3.77
V2G	3.08
V2H	2.91
V2A	3
L5Y	2.59
L5R	3.2
L5V	3.59
L5E	3.61
L5H	3.14
L5T	2.56
L5Q	3.54

Variant	protein stability index
L5F	2.71
L5D	3.04
L5C	3.04
L5W	2.03
L5M	2.55
L5K	2.85
L5A	3.36
L5I	3.04
L5G	2.5
L5P	3.3
L5N	2.56
L5S	3.6
R3H	2.67
R3I	2.22
R3P	3.49
R3Y	2.55
R3W	1.91
R3T	2.99
R3K	2.81
R3S	3.03
R3C	1.72
R3M	2.46
R3L	2.34
R3E	2.59
R3Q	3.33
R3N	2.36

Variant	protein stability index
R3V	2.6
R3F	2.69
R3G	3.1
R3D	3.03
R3A	3.02
P4K	2.87
P4Q	2.51
P4F	2.4
P4G	2.38
P4E	2
P4W	2.71
P4M	1.43
P4N	2.9
P4S	2.85
P4T	2.31
P4V	2.02
P4A	2.06
P4H	2.86
P4C	1.18
P4D	3.06
P4I	1.4
P4R	1.97
A6K	2.74
A6I	2.76
A6D	2.95
A6E	3.06

Variant	protein stability index
A6C	2.98
A6M	3.18
A6G	3.98
A6L	2.72
A6F	2.71
A6H	2.69
R1Y	2.22
R1G	3.11
R1N	3.42
R1V	2.15
R1D	3.73
R1K	2.97
R1M	2.97
R1Q	3.19
R1F	3.21
R1L	2
R1S	3.43
R1E	2.79
R1C	2.61
R1W	2.36
R1H	2.87
R1I	2.81
R1T	3.25
R1P	3.11

Variants of: B2
Experiment: as above
Settings: c terminus: a fixed tail appended

Variant	protein stability index
L22N	5.24
L22E	5.62
L22W	4.28
L22D	5.49
L22K	5.38
L22R	4.5
L22T	4.82
L22F	4.61
L22H	5
L22G	4.98
L22V	4.73
L22S	5.09
L22Q	5.03
L22C	4.17
L22P	5.2
L22M	4.73
L22A	5.03
L22Y	4.22
L22I	4.98
E14H	3.74
E14L	3.87
E14Q	4.36
E14F	3.78
E14S	3.93

Variant	protein stability index
E14W	2.86
E14P	4.12
E14K	3.5
E14Y	3.91
E14C	4.07
E14M	3.59
E14T	4.34
E14D	4.58
E14V	3.24
E14R	3.61
E14A	4.1
E14N	3.54
E14I	3.81
E14G	3.73
R23Y	3.8
R23S	4.95
R23H	4.75
R23K	4.62
R23V	4.31
R23M	4.45
R23F	4.33
R23T	5.14
R23G	4.42
R23A	4.67

Variant	protein stability index
R23Q	5.25
R23L	3.87
R23I	4.68
R23P	4.7
R23W	4.91
R23D	5.42
R23C	4.73
R23N	5.1
R23E	5.36
A18I	4.14
A18G	4.35
A18V	4.26
A18K	4.06
A18Q	4.28
A18E	5.02
A18N	4.42
A18W	4.27
A18L	4.2
A18C	4.43
A18M	4.57
A18P	4.88
A18R	4.56
A18S	4.31
A18Y	4.33

Variant	protein stability index
A18F	3.82
A18D	4.89
A18H	4.8
A18T	4.35
I13P	5.13
I13A	4.7
I13C	5.09
I13R	4.53
I13G	5.08
I13K	4.89
I13F	3.94
I13L	4.21
I13M	4.78
I13S	4.85
I13T	4.16
I13N	4.66
I13H	4.88
I13D	5.06
I13E	5.08
I13Y	4.46
I13W	4.26
I13V	4.64
I13Q	4.44
W21P	5

Variant	protein stability index
W21C	5.35
W21E	5.01
W21T	5.17
W21K	5.44
W21H	5.29
W21Q	5.47
W21I	4.62
W21F	4.66
W21R	5.4
W21G	5.35
W21N	5.1
W21D	5.77
W21L	5.22
W21V	4.89
W21Y	4.68
W21S	5.05
W21M	5.6
W21A	5.41
D20A	3.99
D20K	4.05
D20W	3.98
D20V	3.81
D20E	4.27
D20T	4.12

Variant	protein stability index
D20C	3.21
D20Q	3.91
D20L	3.68
D20G	3.56
D20H	3.95
D20Y	3.97
D20N	4.3
D20I	3.35
D20S	4.28
D20F	3.75
D20M	3.63
D20P	3.56
D20R	3.19
C19S	4.6
C19D	5.19
C19E	5.65
C19Y	4.64
C19F	4.47
C19T	5.12
C19H	4.75
C19R	4.45
C19N	4.89
C19Q	4.77
C19L	3.98

Variant	protein stability index
C19V	4.77
C19A	4.79
C19G	4.43
C19I	4.09
C19K	4.63
C19P	4.33
C19M	4.39
C19W	4.45
A24R	4.23
A24P	4.64
A24H	4.66
A24C	4.55
A24M	3.52
A24Q	4.67
A24S	4.65
A24E	5.03
A24N	4.75
A24Y	4.72
A24F	4.32
A24G	4.78
A24I	4.44
A24V	4.58
A24L	4.46
A24T	4.46

Variant	protein stability index
A24K	4
A24W	3.7
A24D	5.14
K16C	4.14
K16L	4.1
K16E	5.21
K16A	4.35
K16Q	4.44
K16G	4.35
K16V	4.17
K16I	4.16
K16T	4.87
K16H	4.32
K16F	3.61
K16D	5.1
K16M	4.24
K16Y	3.89
K16R	4.55
K16W	4.09
K16N	4.82
K16S	4.1
K16P	3.58
E17W	3.27
E17V	3.65

Variant	protein stability index
E17N	3.63
E17S	4.17
E17A	4.14
E17Q	3.73
E17L	3.76
E17I	4.12
E17T	4.34
E17M	3.86
E17F	3.55
E17H	4.18
E17Y	3.79
E17K	4.23
E17G	4.18
E17C	3.92
E17P	4.41
E17R	3.7
E17D	4.18
A15K	4.61
A15Y	4.33
A15D	4.4
A15E	4.81
A15T	3.76
A15C	4.29
A15H	4.33

Variant	protein stability index
A15W	3.65
A15M	4.24
A15V	4.53
A15P	4.51
A15I	3.91
A15R	4.18
A15Q	4.52
A15N	4.24
A15S	4.81
A15G	3.97
A15L	4
A15F	3.57
E12W	3.26
E12V	4.17
E12T	4.32
E12Y	3.53
